According to patent US20250215070A1:
Each block holds one binder with its values, some of them ahead of it.

How the values were obtained:
[1] = target: human Collagen triple helix repeat-containing protein 1 (CTHRC1) (human) (UniProt Q96CG8); assay: bio-layer interferometry; CTHRC1 species not stated
[2] = target: human Collagen triple helix repeat-containing protein 1 (CTHRC1) (human) (UniProt Q96CG8); assay: binding EC50 on huCTHRC1; method not stated (ELISA named in text)

Chain of human Collagen triple helix repeat-containing protein 1 (CTHRC1) (human) (Q96CG8 31-243): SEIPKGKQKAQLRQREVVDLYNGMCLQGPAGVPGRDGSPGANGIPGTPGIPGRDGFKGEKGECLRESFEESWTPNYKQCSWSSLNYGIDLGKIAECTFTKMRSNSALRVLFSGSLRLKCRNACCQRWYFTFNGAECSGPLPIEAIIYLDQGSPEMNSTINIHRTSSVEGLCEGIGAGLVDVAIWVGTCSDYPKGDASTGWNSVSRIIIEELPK

Kd [1]: 3.18 nM
EC50 [2]: 1.85 nM
B1: CTHRC1S-M5 (antibody, V domains shown)
VH: EVQLVESGGGLVTPGGSLRLSCAASGFTFSTYSMNWVRQAPGKGLEWVSSISGSSGHIYYADSVRGRFTISRDNAKNSLYLQMNSLRAEDTAVYYCASMHYYYYLDVWGKGTTVTVSS
VL: QAVVTQESALTTSPGETVTLTCRSSTGTVTTSNYVTWVQEKPDHLFTGLIGATNNRAPGVPARFSGSLIGDKAALTITGAQTEDEAIYFCALWYSNHWVFGGGTKLTVL

Kd [1]: < 0.001 nM
EC50 [2]: 0.05 nM
B2: CTHRC1S-M14 (antibody, V domains shown)
VH: EVQVVESGGGLVQPGGSLRLSCAASRFTFSNYWMSWVRQAPGRGLEWVANIKQDGSEKYYVDSVKGRFTISRDNAKNSLYLQMNSLRAEDTAVYYCAREGGYCSDTRCFFYMDVWGKGTTVTVSS
VL: DIQMTQSPSTLSASVGDRVTITCRASQSIISWLAWYQQKPGKAPKLLIYKASSLEGGVPSRFSGSGSGTDFTLTISSLQPDDFATYYCQQYNSYSRTFGQGTTVEIK

Kd [1]: 2 nM
EC50 [2]: 9.76 nM
B3: CTHRC1S-M11 (antibody, V domains shown)
VH: QVTLRESGPALVKPTQTLTLTCTFSGFSLSTNVMCVSWIRQPPGKALEWLALIDWDDDKYYSTSLKTRLTISKDTSKNQVVLTMTNMDPVDTATYYCARTGITGTHYYYYYMDVWGKGTTVTVSS
VL: AIQMTQSPSSLSASVGDRVTITCRASQGIRNDLGWYQQKPGKAPKLLIYAASSLQSGVPSRFSGSGFGTDFTLTISSLQPEDFATYYCLQDYNYPWTFGQGTKVEIK
